We go through 34 variants from the Human Domainome abundance scans (Beltran et al. 2025).

± gives the uncertainty stated by the source.

Sequences and labels used below:
B1: POU domain, class 4, transcription factor 1, residues 266 to 347; numbered along this chain, Q01851 (parent)
chain: RELEAFAERFKQRRIKLGVTQADVGSALANLKIPGVGSLSQSTICRFESLTLSHNNMIALKPILQAWLEEAEGAQREKMNKP

In the data set the parent is B1. Briefly: abundance fitness (aPCA) (normalised: wild type 0, dead -1); higher = more abundant; growth selection in yeast, the domain comes from the species named. The following applies: Homo sapiens.
Consider RELEAFAERFKQRRIKLGVTQADVGNALANLKIPGVGSLSQSTICRFESLTLSHNNMIALKPILQAWLEEAEGAQREKMNKP [S26N], for which the abundance fitness was 0.285 ± 0.2.
Regarding RELEAFAERFKQRRIKLGVTQADVGFALANLKIPGVGSLSQSTICRFESLTLSHNNMIALKPILQAWLEEAEGAQREKMNKP [S26F], the abundance fitness was -0.008 ± 0.078.
Under RELEAFAERFKQRRIKLGVTQADVGLALANLKIPGVGSLSQSTICRFESLTLSHNNMIALKPILQAWLEEAEGAQREKMNKP [S26L] stands -0.016 ± 0.05; under RELEAFAERFKQRRIKLGVTQADVGDALANLKIPGVGSLSQSTICRFESLTLSHNNMIALKPILQAWLEEAEGAQREKMNKP [S26D], 0.057 ± 0.068.
Under RELEAFAERFKQRRIKLGVTQADVGQALANLKIPGVGSLSQSTICRFESLTLSHNNMIALKPILQAWLEEAEGAQREKMNKP [S26Q] stands 0.086 ± 0.087.
The result for RELEAFAERFKQRRIKLGVTQADVGCALANLKIPGVGSLSQSTICRFESLTLSHNNMIALKPILQAWLEEAEGAQREKMNKP [S26C] reads -0.03 ± 0.064; that for RELEAFAERFKQRRIKLGVTQADVGGALANLKIPGVGSLSQSTICRFESLTLSHNNMIALKPILQAWLEEAEGAQREKMNKP [S26G], -0.032 ± 0.039; that for RELEAFAERFKQRRIKLGVTQADVGKALANLKIPGVGSLSQSTICRFESLTLSHNNMIALKPILQAWLEEAEGAQREKMNKP [S26K], -0.029 ± 0.062.
Consider RELEAFAERFKQRRIKLGVTQADVGHALANLKIPGVGSLSQSTICRFESLTLSHNNMIALKPILQAWLEEAEGAQREKMNKP [S26H], for which the abundance fitness is -0.005 ± 0.13.
Turning to RELEAFAERFKQRRIKLGVTQADVGAALANLKIPGVGSLSQSTICRFESLTLSHNNMIALKPILQAWLEEAEGAQREKMNKP [S26A], the abundance fitness worked out at 0.011 ± 0.045.
For RELEAFAERFKQRRIKLGVTQADVGMALANLKIPGVGSLSQSTICRFESLTLSHNNMIALKPILQAWLEEAEGAQREKMNKP [S26M], the abundance fitness was -0.049 ± 0.082.
The result for RELEAFAERFKQRRIKLGVTQADVGTALANLKIPGVGSLSQSTICRFESLTLSHNNMIALKPILQAWLEEAEGAQREKMNKP [S26T] reads -0.095 ± 0.06; that for RELEAFAERFKQRRIKLGVTQADVGRALANLKIPGVGSLSQSTICRFESLTLSHNNMIALKPILQAWLEEAEGAQREKMNKP [S26R], -0.004 ± 0.039; that for RELEAFAERFKQRRIKLGVTQADVGPALANLKIPGVGSLSQSTICRFESLTLSHNNMIALKPILQAWLEEAEGAQREKMNKP [S26P], -0.221 ± 0.081.
As to RELEAFAERFKQRRIKLGVTQADRGSALANLKIPGVGSLSQSTICRFESLTLSHNNMIALKPILQAWLEEAEGAQREKMNKP [V24R], the abundance fitness is -0.745 ± 0.074.
With RELEAFAERFKQRRIKLGVTQADPGSALANLKIPGVGSLSQSTICRFESLTLSHNNMIALKPILQAWLEEAEGAQREKMNKP [V24P], the abundance fitness is -1.06 ± 0.23.
Take RELEAFAERFKQRRIKLGVTQADTGSALANLKIPGVGSLSQSTICRFESLTLSHNNMIALKPILQAWLEEAEGAQREKMNKP [V24T]: the abundance fitness is -0.544 ± 0.096.
Under RELEAFAERFKQRRIKLGVTQADSGSALANLKIPGVGSLSQSTICRFESLTLSHNNMIALKPILQAWLEEAEGAQREKMNKP [V24S] stands -0.688 ± 0.1; under RELEAFAERFKQRRIKLGVTQADVTSALANLKIPGVGSLSQSTICRFESLTLSHNNMIALKPILQAWLEEAEGAQREKMNKP [G25T], -0.012 ± 0.076; under RELEAFAERFKQRRIKLGVTQADVHSALANLKIPGVGSLSQSTICRFESLTLSHNNMIALKPILQAWLEEAEGAQREKMNKP [G25H], 0.122 ± 0.16.
RELEAFAERFKQRRIKLGVTQADVLSALANLKIPGVGSLSQSTICRFESLTLSHNNMIALKPILQAWLEEAEGAQREKMNKP [G25L]: the abundance fitness is -0.038 ± 0.048.
With RELEAFAERFKQRRIKLGVTQADVDSALANLKIPGVGSLSQSTICRFESLTLSHNNMIALKPILQAWLEEAEGAQREKMNKP [G25D], the abundance fitness stood at 0.037 ± 0.093.
As for RELEAFAERFKQRRIKLGVTQADVSSALANLKIPGVGSLSQSTICRFESLTLSHNNMIALKPILQAWLEEAEGAQREKMNKP [G25S], the abundance fitness stood at 0.001 ± 0.047.
With RELEAFAERFKQRRIKLGVTQADVNSALANLKIPGVGSLSQSTICRFESLTLSHNNMIALKPILQAWLEEAEGAQREKMNKP [G25N], the abundance fitness is -0.117 ± 0.17.
Under RELEAFAERFKQRRIKLGVTQADVFSALANLKIPGVGSLSQSTICRFESLTLSHNNMIALKPILQAWLEEAEGAQREKMNKP [G25F] stands -0.119 ± 0.14; under RELEAFAERFKQRRIKLGVTQADVVSALANLKIPGVGSLSQSTICRFESLTLSHNNMIALKPILQAWLEEAEGAQREKMNKP [G25V], 0.068 ± 0.04; under RELEAFAERFKQRRIKLGVTQADVQSALANLKIPGVGSLSQSTICRFESLTLSHNNMIALKPILQAWLEEAEGAQREKMNKP [G25Q], -0.001 ± 0.065.
For the variant RELEAFAERFKQRRIKLGVTQADVYSALANLKIPGVGSLSQSTICRFESLTLSHNNMIALKPILQAWLEEAEGAQREKMNKP [G25Y], the abundance fitness was -0.058 ± 0.087.
Regarding RELEAFAERFKQRRIKLGVTQADVASALANLKIPGVGSLSQSTICRFESLTLSHNNMIALKPILQAWLEEAEGAQREKMNKP [G25A], the abundance fitness was 0.04 ± 0.047.
In the case of RELEAFAERFKQRRIKLGVTQADVMSALANLKIPGVGSLSQSTICRFESLTLSHNNMIALKPILQAWLEEAEGAQREKMNKP [G25M], the abundance fitness is -0.009 ± 0.07.
On to RELEAFAERFKQRRIKLGVTQADVESALANLKIPGVGSLSQSTICRFESLTLSHNNMIALKPILQAWLEEAEGAQREKMNKP [G25E], for which the abundance fitness was 0.05 ± 0.054.
RELEAFAERFKQRRIKLGVTQADVWSALANLKIPGVGSLSQSTICRFESLTLSHNNMIALKPILQAWLEEAEGAQREKMNKP [G25W]: the abundance fitness is -0.007 ± 0.055.
Take RELEAFAERFKQRRIKLGVTQADVCSALANLKIPGVGSLSQSTICRFESLTLSHNNMIALKPILQAWLEEAEGAQREKMNKP [G25C]: the abundance fitness was 0.025 ± 0.066.
Under RELEAFAERFKQRRIKLGVTQADVKSALANLKIPGVGSLSQSTICRFESLTLSHNNMIALKPILQAWLEEAEGAQREKMNKP [G25K] stands 0.009 ± 0.083.
